Test results taken from patent publication US10500249B2, “Compositions and methods for preventing or treating diseases, conditions, or processes characterized by aberrant fibroblast proliferation and extracellular matrix deposition” (MOERAE MATRIX, INC., priority 2014, dated 2019).

How the values were obtained:
Assay in all cases: Kinase Profiling Assay
Assay type in all cases: biochemical
Settings in all cases: 100 μM
SAPK2a (h) = SAPK2a (h) (Homo sapiens, UniProt Q16539)
How it was run: (§1)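 Measured twice per kinase, activity in presence of MK2 inhibitory peptide was calculated against a 100% activity control after radiometric phosphorylation of a cationic substrate, anionic filter capture and scintillation counting; one of 266 human kinases profiled for specificity.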

SAPK2a(T106M) (h) = SAPK2a(T106M) (h) (Homo sapiens, UniProt Q16539, T106M)
Sequence of SAPK2a(T106M) (h) (Q16539 whole entry T106M): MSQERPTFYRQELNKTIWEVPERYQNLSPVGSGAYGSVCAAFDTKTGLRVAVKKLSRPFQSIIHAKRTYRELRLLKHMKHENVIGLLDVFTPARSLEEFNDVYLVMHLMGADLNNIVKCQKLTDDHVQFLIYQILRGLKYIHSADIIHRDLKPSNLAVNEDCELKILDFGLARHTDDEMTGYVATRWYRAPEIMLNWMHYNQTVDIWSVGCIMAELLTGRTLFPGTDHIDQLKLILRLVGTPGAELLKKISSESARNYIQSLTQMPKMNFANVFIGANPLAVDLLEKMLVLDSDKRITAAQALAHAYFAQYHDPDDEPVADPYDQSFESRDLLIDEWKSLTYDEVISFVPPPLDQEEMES
How it was run: as §1

EphA4 (h) = EphA4 (h) (Homo sapiens, UniProt P54764)
Sequence of EphA4 (h) (P54764 20-986): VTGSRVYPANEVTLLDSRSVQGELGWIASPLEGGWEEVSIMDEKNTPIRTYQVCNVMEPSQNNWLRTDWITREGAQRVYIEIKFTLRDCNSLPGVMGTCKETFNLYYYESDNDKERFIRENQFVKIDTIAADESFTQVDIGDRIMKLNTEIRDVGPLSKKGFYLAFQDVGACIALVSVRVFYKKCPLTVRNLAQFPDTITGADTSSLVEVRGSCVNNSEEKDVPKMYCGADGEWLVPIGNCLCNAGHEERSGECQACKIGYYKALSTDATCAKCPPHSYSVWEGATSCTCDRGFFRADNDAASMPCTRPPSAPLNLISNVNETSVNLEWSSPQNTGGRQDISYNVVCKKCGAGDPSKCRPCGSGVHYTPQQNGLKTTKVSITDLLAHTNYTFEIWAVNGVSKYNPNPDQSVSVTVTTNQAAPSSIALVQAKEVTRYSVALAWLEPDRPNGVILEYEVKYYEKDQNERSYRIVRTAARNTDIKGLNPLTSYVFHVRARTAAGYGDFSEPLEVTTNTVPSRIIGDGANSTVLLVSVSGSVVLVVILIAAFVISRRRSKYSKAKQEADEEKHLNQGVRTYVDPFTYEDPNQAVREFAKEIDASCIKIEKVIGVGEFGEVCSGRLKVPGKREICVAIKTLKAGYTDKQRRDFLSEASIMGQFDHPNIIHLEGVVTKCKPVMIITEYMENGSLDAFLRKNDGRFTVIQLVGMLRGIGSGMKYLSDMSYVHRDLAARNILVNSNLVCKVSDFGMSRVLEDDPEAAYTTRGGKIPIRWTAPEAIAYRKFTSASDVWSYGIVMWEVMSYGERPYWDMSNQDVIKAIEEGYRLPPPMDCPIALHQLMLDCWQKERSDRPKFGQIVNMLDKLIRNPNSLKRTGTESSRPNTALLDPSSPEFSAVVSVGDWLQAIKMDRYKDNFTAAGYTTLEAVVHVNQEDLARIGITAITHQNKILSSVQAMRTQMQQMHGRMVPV
How it was run: as §1

GSK3α (h) = target: T1, GSK3α (h) (Homo sapiens, UniProt P49840)
T1 construct: purchased Millipore
How it was run: as §1

EphB4 (h) = target: T2, EphB4 (h) (Homo sapiens, UniProt P54760)
T2 sequence (P54760 16-987): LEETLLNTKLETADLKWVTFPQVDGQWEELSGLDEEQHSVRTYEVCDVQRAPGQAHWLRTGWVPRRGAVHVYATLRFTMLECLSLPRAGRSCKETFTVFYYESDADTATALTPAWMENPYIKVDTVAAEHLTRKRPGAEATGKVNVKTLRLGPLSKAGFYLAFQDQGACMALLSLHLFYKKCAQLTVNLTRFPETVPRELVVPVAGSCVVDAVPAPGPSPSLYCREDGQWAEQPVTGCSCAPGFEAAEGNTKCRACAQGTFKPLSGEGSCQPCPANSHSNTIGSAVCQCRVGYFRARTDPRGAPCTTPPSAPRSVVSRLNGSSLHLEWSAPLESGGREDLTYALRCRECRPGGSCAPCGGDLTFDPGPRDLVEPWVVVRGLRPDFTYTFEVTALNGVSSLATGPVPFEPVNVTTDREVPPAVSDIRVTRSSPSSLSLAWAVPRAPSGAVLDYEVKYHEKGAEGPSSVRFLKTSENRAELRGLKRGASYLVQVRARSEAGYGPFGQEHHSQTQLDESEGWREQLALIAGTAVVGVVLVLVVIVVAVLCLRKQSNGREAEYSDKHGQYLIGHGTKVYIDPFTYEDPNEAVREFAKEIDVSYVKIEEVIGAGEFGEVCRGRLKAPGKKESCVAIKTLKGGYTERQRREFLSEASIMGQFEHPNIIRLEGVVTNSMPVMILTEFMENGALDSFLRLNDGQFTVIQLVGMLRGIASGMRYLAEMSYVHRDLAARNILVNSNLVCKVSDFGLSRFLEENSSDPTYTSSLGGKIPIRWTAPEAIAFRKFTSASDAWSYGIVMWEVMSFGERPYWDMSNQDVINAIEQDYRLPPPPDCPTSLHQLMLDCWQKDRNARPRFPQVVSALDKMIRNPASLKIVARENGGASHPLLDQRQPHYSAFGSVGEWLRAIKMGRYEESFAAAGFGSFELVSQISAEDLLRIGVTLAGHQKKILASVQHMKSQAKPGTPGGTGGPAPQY
How it was run: as §1

Pim-3 (h) = target: T3, Pim-3 (h) (Homo sapiens, UniProt Q86V86)
T3 construct: purchased Millipore
How it was run: as §1

FGFR4 (h) = FGFR4 (h) (Homo sapiens, UniProt P22455)
How it was run: as §1

DMPK (h) = target: T4, DMPK (h) (Homo sapiens, UniProt Q09013)
T4 construct: purchased Millipore
T4 sequence (Q09013 1-629): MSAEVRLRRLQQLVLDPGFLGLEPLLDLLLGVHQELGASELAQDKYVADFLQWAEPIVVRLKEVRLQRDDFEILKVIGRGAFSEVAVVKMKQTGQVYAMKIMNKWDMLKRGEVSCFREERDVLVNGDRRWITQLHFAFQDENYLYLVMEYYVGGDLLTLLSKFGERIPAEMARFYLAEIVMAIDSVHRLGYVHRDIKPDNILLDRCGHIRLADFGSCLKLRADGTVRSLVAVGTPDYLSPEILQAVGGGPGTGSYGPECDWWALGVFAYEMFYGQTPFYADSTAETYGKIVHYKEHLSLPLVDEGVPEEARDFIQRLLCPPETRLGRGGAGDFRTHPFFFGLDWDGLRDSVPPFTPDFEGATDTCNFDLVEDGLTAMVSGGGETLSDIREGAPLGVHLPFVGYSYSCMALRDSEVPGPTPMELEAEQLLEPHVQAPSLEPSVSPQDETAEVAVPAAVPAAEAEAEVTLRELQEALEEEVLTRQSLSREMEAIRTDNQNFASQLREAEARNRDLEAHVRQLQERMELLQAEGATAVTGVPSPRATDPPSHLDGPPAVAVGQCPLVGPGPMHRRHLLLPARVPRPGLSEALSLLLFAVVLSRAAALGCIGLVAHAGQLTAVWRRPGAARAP
How it was run: as §1

PKBγ (h) = target: T5, PKBγ (h) (Homo sapiens, UniProt Q9Y243)
T5 construct: purchased Millipore
T5 sequence (Q9Y243 whole entry): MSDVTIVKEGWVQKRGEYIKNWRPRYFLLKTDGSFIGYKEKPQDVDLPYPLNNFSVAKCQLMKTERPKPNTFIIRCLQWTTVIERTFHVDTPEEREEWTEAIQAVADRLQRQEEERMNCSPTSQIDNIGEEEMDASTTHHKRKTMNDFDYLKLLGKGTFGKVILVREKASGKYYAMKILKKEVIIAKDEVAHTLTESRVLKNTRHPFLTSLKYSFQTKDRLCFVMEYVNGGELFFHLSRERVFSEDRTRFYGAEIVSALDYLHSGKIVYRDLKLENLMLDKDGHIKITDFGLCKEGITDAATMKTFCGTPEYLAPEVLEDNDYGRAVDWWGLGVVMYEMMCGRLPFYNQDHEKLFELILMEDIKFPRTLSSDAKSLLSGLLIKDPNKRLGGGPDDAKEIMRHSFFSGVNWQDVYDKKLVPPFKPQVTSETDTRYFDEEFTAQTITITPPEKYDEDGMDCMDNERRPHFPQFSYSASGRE
How it was run: as §1

JNK2α2 (h) = JNK2α2 (h) (Homo sapiens, UniProt P45984)
How it was run: as §1

PAK5 (h) = target: T6, PAK5 (h) (Homo sapiens, UniProt Q9P286)
T6 construct: purchased Millipore
T6 sequence (Q9P286 whole entry): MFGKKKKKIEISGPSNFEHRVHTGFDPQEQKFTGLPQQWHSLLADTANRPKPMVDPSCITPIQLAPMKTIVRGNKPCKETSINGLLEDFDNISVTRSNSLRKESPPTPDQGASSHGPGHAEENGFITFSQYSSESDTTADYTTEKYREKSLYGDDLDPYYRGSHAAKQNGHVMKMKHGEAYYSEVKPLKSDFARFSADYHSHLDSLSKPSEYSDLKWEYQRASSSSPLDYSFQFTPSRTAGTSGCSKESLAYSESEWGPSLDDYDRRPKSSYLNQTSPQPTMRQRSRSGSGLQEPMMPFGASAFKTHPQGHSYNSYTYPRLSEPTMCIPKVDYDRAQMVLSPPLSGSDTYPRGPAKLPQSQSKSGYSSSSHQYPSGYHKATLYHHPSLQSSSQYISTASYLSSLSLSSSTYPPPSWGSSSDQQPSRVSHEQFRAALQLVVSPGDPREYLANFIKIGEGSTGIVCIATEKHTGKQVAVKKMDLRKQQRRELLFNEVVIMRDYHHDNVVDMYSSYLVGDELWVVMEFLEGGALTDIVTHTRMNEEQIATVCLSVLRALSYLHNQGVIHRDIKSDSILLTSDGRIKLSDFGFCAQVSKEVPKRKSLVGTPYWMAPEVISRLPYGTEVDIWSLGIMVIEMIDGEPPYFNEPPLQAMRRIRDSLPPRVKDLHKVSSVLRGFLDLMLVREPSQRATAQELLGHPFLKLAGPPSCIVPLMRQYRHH
How it was run: as §1

BRK (h) = BRK (h) (Homo sapiens, UniProt Q13882)
Sequence of BRK (h) (Q13882 whole entry): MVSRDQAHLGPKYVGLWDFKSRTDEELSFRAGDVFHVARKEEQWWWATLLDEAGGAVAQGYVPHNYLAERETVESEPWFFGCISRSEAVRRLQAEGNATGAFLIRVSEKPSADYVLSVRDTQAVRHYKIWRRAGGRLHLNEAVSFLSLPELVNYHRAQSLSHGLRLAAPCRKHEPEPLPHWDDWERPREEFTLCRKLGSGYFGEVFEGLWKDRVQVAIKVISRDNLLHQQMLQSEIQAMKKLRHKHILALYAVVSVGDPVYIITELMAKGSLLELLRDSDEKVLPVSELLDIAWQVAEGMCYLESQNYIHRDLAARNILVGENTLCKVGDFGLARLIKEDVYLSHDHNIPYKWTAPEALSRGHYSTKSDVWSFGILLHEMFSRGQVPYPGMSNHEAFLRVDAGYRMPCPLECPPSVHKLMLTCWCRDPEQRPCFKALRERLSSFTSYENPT
How it was run: as §1

IRR (h) = target: T7, IRR (h) (Homo sapiens, UniProt P14616)
T7 construct: purchased Millipore
T7 sequence (P14616 27-1297): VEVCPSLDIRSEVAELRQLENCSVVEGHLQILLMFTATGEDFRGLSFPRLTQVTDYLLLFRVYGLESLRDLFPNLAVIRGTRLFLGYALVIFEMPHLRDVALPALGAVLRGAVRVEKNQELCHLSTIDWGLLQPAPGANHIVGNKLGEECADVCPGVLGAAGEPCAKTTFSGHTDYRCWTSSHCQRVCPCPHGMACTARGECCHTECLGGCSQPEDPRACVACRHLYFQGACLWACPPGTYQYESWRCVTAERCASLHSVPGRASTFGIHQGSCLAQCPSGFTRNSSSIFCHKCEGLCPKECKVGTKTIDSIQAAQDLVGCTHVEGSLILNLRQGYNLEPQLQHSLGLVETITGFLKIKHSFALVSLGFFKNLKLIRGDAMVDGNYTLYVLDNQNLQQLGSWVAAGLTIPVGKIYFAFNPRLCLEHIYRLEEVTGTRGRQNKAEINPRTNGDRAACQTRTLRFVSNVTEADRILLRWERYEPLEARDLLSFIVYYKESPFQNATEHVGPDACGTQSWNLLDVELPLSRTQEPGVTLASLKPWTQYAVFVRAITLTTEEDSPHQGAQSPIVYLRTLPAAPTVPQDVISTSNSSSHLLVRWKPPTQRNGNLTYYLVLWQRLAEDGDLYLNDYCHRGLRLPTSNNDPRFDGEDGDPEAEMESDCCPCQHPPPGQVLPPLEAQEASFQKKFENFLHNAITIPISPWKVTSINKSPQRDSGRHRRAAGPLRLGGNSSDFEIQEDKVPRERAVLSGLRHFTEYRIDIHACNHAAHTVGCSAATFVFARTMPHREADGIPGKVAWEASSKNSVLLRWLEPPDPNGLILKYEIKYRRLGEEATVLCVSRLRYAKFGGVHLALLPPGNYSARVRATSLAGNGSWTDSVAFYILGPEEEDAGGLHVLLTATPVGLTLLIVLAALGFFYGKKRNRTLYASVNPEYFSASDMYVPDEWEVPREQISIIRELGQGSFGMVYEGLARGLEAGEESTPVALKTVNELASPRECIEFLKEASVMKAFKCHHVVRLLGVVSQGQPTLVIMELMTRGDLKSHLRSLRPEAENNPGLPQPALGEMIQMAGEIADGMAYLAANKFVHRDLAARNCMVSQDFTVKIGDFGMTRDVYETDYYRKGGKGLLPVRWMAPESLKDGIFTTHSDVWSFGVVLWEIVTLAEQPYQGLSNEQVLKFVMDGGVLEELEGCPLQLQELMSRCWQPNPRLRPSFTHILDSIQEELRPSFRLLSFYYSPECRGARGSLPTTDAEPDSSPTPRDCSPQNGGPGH
How it was run: as §1

MLK1 (h) = target: T8, MLK1 (h) (Homo sapiens, UniProt P80192)
T8 construct: purchased Millipore
How it was run: as §1

MAPKAP-K3 (h) = MAPKAP-K3 (h) (Homo sapiens, UniProt Q16644)
Sequence of MAPKAP-K3 (h) (Q16644 whole entry): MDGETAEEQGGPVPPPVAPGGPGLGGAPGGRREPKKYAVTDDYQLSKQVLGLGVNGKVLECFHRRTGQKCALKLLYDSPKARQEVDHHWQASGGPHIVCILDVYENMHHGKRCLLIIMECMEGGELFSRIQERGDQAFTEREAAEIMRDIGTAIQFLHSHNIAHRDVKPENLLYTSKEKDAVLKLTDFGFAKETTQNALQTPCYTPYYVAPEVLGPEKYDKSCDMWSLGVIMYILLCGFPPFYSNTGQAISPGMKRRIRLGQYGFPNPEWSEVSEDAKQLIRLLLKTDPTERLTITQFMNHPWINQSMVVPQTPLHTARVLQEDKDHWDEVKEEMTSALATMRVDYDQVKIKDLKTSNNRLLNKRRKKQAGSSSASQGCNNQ
How it was run: as §1

Sequence of SAPK2a (h) (Q16539 whole entry): as the sequence (Q16539 whole entry T106M) above, with M106T counted along it

FAKLAARLYRKALARQLGVAA [MMI-0300]
% activity (SAPK2a (h)): 90% | % activity (SAPK2a(T106M) (h)): 97% | % activity (EphA4 (h)): 88% | % activity (GSK3α (h)): 157% | % activity (EphB4 (h)): 44% | % activity (Pim-3 (h)): 80% | % activity (FGFR4 (h)): 28% | % activity (DMPK (h)): 59% | % activity (PKBγ (h)): 20% | % activity (JNK2α2 (h)): 98% | % activity (PAK5 (h)): 110% | % activity (BRK (h)): 35% | % activity (IRR (h)): 8% | % activity (MLK1 (h)): 40% | % activity (MAPKAP-K3 (h)): 3%

HRRIKAWLKKIKALARQLGVAA (Mammalian) [MMI-0500]
% activity (SAPK2a (h)): 52% | % activity (SAPK2a(T106M) (h)): 32% | % activity (EphA4 (h)): 48% | % activity (GSK3α (h)): 175% | % activity (EphB4 (h)): 38% | % activity (Pim-3 (h)): 37% | % activity (FGFR4 (h)): 3% | % activity (DMPK (h)): 12% | % activity (PKBγ (h)): 20% | % activity (JNK2α2 (h)): 81% | % activity (PAK5 (h)): 125% | % activity (BRK (h)): 41% | % activity (IRR (h)): 10% | % activity (MLK1 (h)): 43% | % activity (MAPKAP-K3 (h)): 9%

KAFAKLAARLYRKALARQLGVAA [MMI-0400]
% activity (SAPK2a (h)): 85% | % activity (SAPK2a(T106M) (h)): 99% | % activity (EphA4 (h)): 65% | % activity (GSK3α (h)): 164% | % activity (EphB4 (h)): 28% | % activity (Pim-3 (h)): 80% | % activity (FGFR4 (h)): 19% | % activity (DMPK (h)): 54% | % activity (PKBγ (h)): 41% | % activity (JNK2α2 (h)): 96% | % activity (BRK (h)): 18% | % activity (IRR (h)): 8% | % activity (MLK1 (h)): 33% | % activity (MAPKAP-K3 (h)): 7%

YARAAARQARAKALNRQLGVA (Mammalian) [MMI-0200]
% activity (SAPK2a(T106M) (h)): 100% | % activity (EphA4 (h)): 127% | % activity (EphB4 (h)): 131% | % activity (Pim-3 (h)): 94% | % activity (FGFR4 (h)): 75% | % activity (DMPK (h)): 66% | % activity (PAK5 (h)): 100% | % activity (BRK (h)): 127% | % activity (IRR (h)): 69% | % activity (MLK1 (h)): 84% | % activity (MAPKAP-K3 (h)): 39%
